One substance from patent US20230331840A1 can be followed below.

The target of one assay is CD22-his (human) (UniProt P20273). Briefly: ELISA. (In an ELISA, binding on a coated surface is turned into a signal by an enzyme label.)
The target in the next assay is h CD22-His (human) (UniProt P20273). Briefly: BLI (Fortebio).

The term EC50 denotes the midpoint of the concentration-response curve. A lower EC50 goes with a more potent agent. A word on the Kd: it is the free concentration of one partner at which half of the binding sites on the other are occupied at equilibrium, for simple one-to-one binding. A high value points to weaker binding.

Consider M971, for which the EC50 with CD22-his (human) was 0.195 nM. Besides, the dissociation constant Kd in the assay with h CD22-His (human) amounted to 0.86 nM.
